Each block holds one substance with its values, some of them ahead of it.
How the values were obtained:
[1] = molecular target: ClpXP (ClpXΔN6 with ClpP14) (Escherichia coli | E. coli) (UniProt P0A6H1)
[2] = molecular target: YbeA-ssrA (Escherichia coli | not stated); assay: SEC; analytical SEC on an S200 10/300 GL column, 0.5-1 mL/min, molecular mass from Kav against a calibration curve of low molecular weight standards
[3] = molecular target: ThiS-YbeA-ssrA (Archaeoglobus fulgidus | Escherichia coli | not stated); assay: as above

degradation of PR65/A-ssrA by ClpXP in competition with equimolar UCH-L1-ssrA (5 µM each), SDS-PAGE and densitometry [1]: 2 fold
Substance: UCH-L1-ssrA (enzyme)

stoichiometry N [2]: 2
Substance: YbeA-ssrA (enzyme)

stoichiometry N [3]: 2
Substance: ThiS-YbeA-ssrA

Source: publication PMC6382783
